Among the data in patent US20200299380A1 (published 2020) are binding result and EC50 values, retold here.

Experiment [1] concerns the target T1, recombinant human MICA extracellular domain recombinant-Fc protein (MICA*019 allele, R&D Systems) (human, UniProt Q29983 24-297).
T1 construct: also called MICA*019-Fc; MICA-Fc; not shown: Fc of the bought fusion protein
T1 chain: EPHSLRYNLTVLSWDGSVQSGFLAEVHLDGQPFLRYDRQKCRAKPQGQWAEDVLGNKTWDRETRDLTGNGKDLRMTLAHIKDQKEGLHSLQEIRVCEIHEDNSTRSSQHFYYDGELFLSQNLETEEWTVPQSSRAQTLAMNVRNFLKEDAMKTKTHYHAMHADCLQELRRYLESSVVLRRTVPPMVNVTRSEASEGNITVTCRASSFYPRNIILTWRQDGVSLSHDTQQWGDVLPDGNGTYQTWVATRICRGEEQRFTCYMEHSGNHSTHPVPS
As to the kind of experiment: SPR solution competition experiment (MICA*019-Fc pre-incubated with antibody, NKG2D-Fc chip). On the procedure:
SPR measurements were performed on a Biacore T100 apparatus (Biacore GE Healthcare) at 25° C. In all Biacore experiments HBS-EP+ buffer (Biacore GE Healthcare) served as running buffer, 10 mM NaOH, 500 mM NaCl served as regeneration buffer and sensorgrams were analyzed with Biaevaluation 4.1 and Biacore T100 Evaluation software.
For solution competition experiments, the human NKG2D-Fc (R&D systems) recombinant proteins were covalently immobilized onto a CM5 sensorchip. Soluble human MICA*01-BirA or human MICA*019-Fc (R&D systems) recombinant proteins at a constant concentration of 10 μg/ml were pre-incubated with a 5 to 10 molar equivalent excess of antibodies and injected for 2 minutes at a flow rate of 10 μl/min onto the NKG2D-Fc chip. After each cycle, Sensorchips were regenerated by a five second injection of appropriate regeneration buffer.

The target of experiment [2] is T2, MICA*008 expressed at the cell surface (human, UniProt Q29983 24-297).
T2 construct: also called C1R-MICA*008; C1R-MICA*08
T2 chain: T1 chain with S175G
Kind of experiment: flow cytometry on C1R transfectant cells, 4-parameter logistic fit. Background: In flow cytometry, cells or beads pass a laser one at a time.

The target of experiment [3] is T3, MICB-Fc (R&D Systems 1599-MB) (human, UniProt Q29980 23-298, limits assumed).
T3 construct: Bought; also called human MICB-Fc; not shown: Fc of the bought fusion protein
T3 sequence: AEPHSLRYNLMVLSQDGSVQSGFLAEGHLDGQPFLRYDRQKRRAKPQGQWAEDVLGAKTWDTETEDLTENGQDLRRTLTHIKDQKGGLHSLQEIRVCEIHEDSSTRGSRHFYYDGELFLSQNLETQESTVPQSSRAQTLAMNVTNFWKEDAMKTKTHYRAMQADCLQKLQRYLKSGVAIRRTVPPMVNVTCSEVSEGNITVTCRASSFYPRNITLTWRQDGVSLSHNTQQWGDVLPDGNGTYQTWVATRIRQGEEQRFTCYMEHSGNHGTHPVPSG
As to the kind of experiment: SPR, antibody injected over immobilized MICB-Fc. On the procedure:
For cross-binding study, the human ULBP-1-Fc (R&D systems*), MICB-Fc (*), ULBP-2-Fc (*) and ULBP-3-Fc (*) recombinant proteins were covalently immobilized respectively on the flow cell one to four of a CM5 sensorchip. Anti-MICA antibodies (at a constant concentration of 10 μg/ml) were injected for 2 minutes at a flow rate of 10 μl/min onto the four flow cells in parallel. After each cycle, Sensorchip was regenerated by a five second injection of appropriate regeneration buffer.

Numbering of substitutions follows the chain as printed.

B1: CHG1-M-MIA-16A8 (antibody, V domains shown)
VH: EVQLVESGGGLVKPGGSLKLSCAASGFTFSRYAMSWVRQTPEKRLEWVATIFSGGSYTYYPDSVKGRFTISRDNANNTLYLQMSSLKAEDTAMYFCARPNWERTFDYWGQGTTLTVSS
VL: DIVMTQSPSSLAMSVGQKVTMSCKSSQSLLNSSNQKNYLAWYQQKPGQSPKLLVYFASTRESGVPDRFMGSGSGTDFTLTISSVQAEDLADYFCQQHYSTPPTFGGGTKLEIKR
notes: also called CHG1-M-MIA2-16A8; chimeric anti-MICA 16A8
With B1, the binding result in experiment [1] was “no binding”.

B2: CHG1-M-MIA-20C6 (antibody, V domains shown)
VH: QITLKESGPGILKPSQTLSLTCSFSGFSLSTSGMGVGWIRQPSGKGLEWLAHIWWDDDKYYNPSLKSQLTISKDTSRNQVFLRITSVDTADTATYYCARRTQGYFDYWGQGTTLTVSS
VL: DIVMTQSPATLSVTPGDRVSLSCRASQSISDYLHWYQQKSHESPRLLIKYASQSISGIPSRFSGSGSGSDFTLSINSVEPEDVGVYYCQNGHSFPWTFGGGTKLEIKR
notes: also called chimeric anti-MICA 20C6
One may read the EC50 as the concentration at which the effect is half-maximal. A low value points to higher potency in that assay. As for B2, the EC50 in experiment [2] was 0.13 µg/mL. The binding result in experiment [3] is recorded as “no binding (tested: 10 µg/ml)”.
